Assay results reported in the supplement of paper PMC9170038.

System: MS2 coat protein
Experiment: apparent KD of MS2 coat protein; designed switch direction (-1 OFF switch, 1 ON switch): 1; higher = weaker reporter binding
Summary of the method: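 An oligonucleotide input, 200 uM small-molecule ligand, or no input was present during titration of SNAP-549-labelled MS2 coat protein, which was doubled from 0.7 or 1.5 nM to 3 µM. Designed RNA switches had been transcribed on Illumina chips by stalled E. coli RNA polymerase. Apparent KD per design is the median over clusters of curves fitted to normalised cluster fluorescence.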

[1] = input ligand: microRNA oligo, concentration not stated
[2] = Eterna round: R95, input ligand: FMN 200 uM
[3] = Eterna round: R95, input ligand: microRNA oligo, concentration not stated
[4] = Eterna round: R95, input ligand: none

Row | Sequence | apparent KD of MS2 coat protein (input ligand: FMN 200 uM) [nM] | apparent KD of MS2 coat protein [1] [nM] | apparent KD of MS2 coat protein (input ligand: none) [nM] | apparent KD of MS2 coat protein [2] [nM] | apparent KD of MS2 coat protein [3] [nM] | apparent KD of MS2 coat protein [4] [nM]
1 | UCUUGGUUUUUGCUCGUUUUUUGUGUUGAACAUGAGGAUCACCCAUGUAUUGUACAAUCCAAUUUAAUAAUGGUCCG [JMF 48] (Eterna round: R96, puzzle: Sensor for hsa-mir-208a) | 105 | 70.1 | 99.2 | – | – | –
2 | UCUUGGUUUUUGCUCGUUUUUUGUGUUGAACAUGAGGAUCACCCAUGUAUUGUACAAUCCAAUUUAAUAAUGGUCCG [JMF 48] (puzzle: Sensor for hsa-mir-208a) | – | – | – | 74.7 | 81.7 | 94
3 | UCUUGGUUUUUGCUCGUUUUUUGUGUUGAACAUGAGGAUCACCCAUGUAUUGUACAGUCCAAUUUGAUAAUGGUCCG [JMF 54] (Eterna round: R96, puzzle: Sensor for hsa-mir-208a) | 50.2 | 28.1 | 55.1 | – | – | –
4 | UCUUGGUUUUUGCUCGUUUUUUGUGUUGAACAUGAGGAUCACCCAUGUAUUGUACAGUCCAAUUUGAUAAUGGUCCG [JMF 54] (puzzle: Sensor for hsa-mir-208a) | – | – | – | 37.6 | 32.3 | 44
5 | UCUUGGUUUUUGCUCGUUUUUUGUGUUGAACAUGAGGAUCACCCAUGUAUUGUACGAUCCAGUUAGAUGGUGGUUUG [JR_SHM208A_Sub044] (puzzle: Sensor for hsa-mir-208a) | – | – | – | 63.1 | 70.1 | 91.9
6 | UCUUGGUUUUUGCUCGUUUUUUGUGUUGAACAUGAGGAUCACCCAUGUAUUGUACGAUCCGAUUUAAUAAUGGUCCG [JMF 62] (puzzle: Sensor for hsa-mir-208a) | – | – | – | 63.2 | 55.7 | 83.1
7 | UCUUGGUUUUUGCUCGUUUUUUGUGUUGAACAUGAGGAUCACCCAUGUAUUGUACGGUCCAGUUUAGUGGUAAUCCG [JMF 69] (puzzle: Sensor for hsa-mir-208a) | – | – | – | 33.9 | 20.6 | 36.8
8 | UCUUGGUUUUUGCUCGUUUUUUGUGUUGAACAUGAGGAUCACCCAUGUAUUGUACGGUCCGGUUUAAUAGUGGUCCG [JMF 14] (puzzle: Sensor for hsa-mir-208a) | – | – | – | 27.8 | 15.4 | 28.3
9 | UGAACCGUCACAGGAUAUCAUGCGAAAAUUGCGUGAGAAGGGUGGAUGUUGUGCUCAAAGUUCUACAUGAGGAUCACCCAUGUU [SameState NG1 #44] (Eterna round: R96, puzzle: Same State NG 1) | 61.9 | 33.5 | 60.5 | – | – | –
10 | UGAAUAAUGUUAGGAUAUACAUGAGGAAUCCUCGUAGAAGGAACAUGACAUGAGGAUCACCCAUGUAGCGCUCCGUAGAGCGCA [Mat - Same State NG 1 - JL mod - D49] (Eterna round: R96, puzzle: Same State NG 1) | 111 | 39.5 | 250 | – | – | –
11 | UGAAUACAUGAGGAUCACCCAUGUCAACGUAGUCGAGGAUAUGGGCAGCCGUGAGGCGUACUAGAAGGCGAAGAGG [JL-ss1-3.07 ViennaUCT mod] (puzzle: Same State 1) | – | – | – | 131 | 89.9 | 175
12 | UGAAUAGUUACAGGAUAUGAUCCGAAAAUUGGGUCAGAAGGGUGGGUGUUGUGCGCUAUGUGCUACAUGAGGAUCACCCAUGUU [SameState NG1 #36] (Eterna round: R96, puzzle: Same State NG 1) | 341 | 22.5 | 41.2 | – | – | –
13 | UGAAUGGUGAUAGGAUAUACAUGAGGAAUCCUCGUAGAAGGAUCAUGACAUGAGGAUCACCCAUGUAGCGCUCAGAAGAGCGCA [Mat - Same State NG 1 - JL mod - D53] (Eterna round: R96, puzzle: Same State NG 1) | 129 | 42.4 | 83.9 | – | – | –
14 | UGAAUGGUGAUAGGAUAUACAUGAGGAAUCCUCGUAGAAGGAUCAUGACAUGAGGAUCACCCAUGUAGCGCUCCGUAGAGCGCA [JL SSNG1 1.21] (Eterna round: R96, puzzle: Same State NG 1) | 53 | 19.7 | 154 | – | – | –
15 | UGACACACGGCAGGAUAUCCUUAGCAAAGCUAAGGAGAAGGGCCUCAUGUCGUGGAAACGUGACAUGAGGAUCACCCAUGUUGC [Omei SS(NG)1 Cv7] (Eterna round: R96, puzzle: Same State NG 1) | 154 | 18.1 | 85 | – | – | –
16 | UGACACACGGCAGGAUAUCGUUAGCAAAGCUAACGAGAAGGGCCUCAUGUCGUGGAAACGUGACAUGAGGAUCACCCAUGUUGC [Omei SS(NG)1 Cv10] (Eterna round: R96, puzzle: Same State NG 1) | 204 | 12.4 | 53.7 | – | – | –
17 | UGCCUGUCCGAAGGAUAUCUCAGCGAUCUUUUGGGAGAAGGUCGGAUGCAACAUGAGGAUCACCCAUGUGUAUAUAUCGCUGAC [Eternabot solution 48] (Eterna round: R96, puzzle: Same State NG 1) | 17.7 | 13.9 | 20.1 | – | – | –
18 | UGCUACUGGGUAGGAUAUUUAGGAUAUGGGAAAGACUAAGUCUGUAGGUCACCUAACCCAGAAGGAGAGAAGGACCAUUCAGCU [pwkr ssNG2 2FMN + F9.33] (Eterna round: R96, puzzle: Same State NG 2) | 29.5 | 55.3 | 32.7 | – | – | –
19 | UGCUAGGAUAUCUUGAGGAUCACCCAGGAGAAGGAGUAAAGUUAGGAUAUCCUGAGGAUCACCCAGGAGAAGGAGCACAUACUC [pwkr ssNG3 DX 2xF5 +2xFMN.14] (Eterna round: R96, puzzle: Same State NG 3) | 50.7 | 79.8 | 58.4 | – | – | –
20 | UGGAGACAUCAAGGAUAUGCUACCGUUUCGGUAGCAGAAGGUGAUCACAUGAGGAUCACCCAUGUAUGCAUGCGUGAGCGUGCU [JL SSNG1 3.53] (Eterna round: R96, puzzle: Same State NG 1) | 779 | 32.7 | 35.4 | – | – | –
21 | UGGAUCUAGGCUUGCCUGGGUCCAUGUUGACAUGAGGAUCACCCAUGUGUAUUUUAUAAGCUUUUUGUUUGUCAACU [JL A Humble Attempt mod 8] (puzzle: Sensor for hsa-mir-208a) | – | – | – | 25.7 | 12.8 | 28.4
22 | UGGCAACAUGAGGAUCACCCAUGUCAAACUAAUCGAGGAUAUGGGAACGAACAAGAGAAACUAGAAGGCGAACUUG [Altered State 1-11 - Jieux - Same State 1] (puzzle: Same State 1) | – | – | – | 122 | 137 | 118
23 | UGGCUCAGACGAGGAUAUAUGUCUCGAGCUUCGGCUCGAGACAUGAGGAUCACCCAUGUAAUAACAUAGAAGGCGUCUGAGCCA [SSNG2/1-A2] (Eterna round: R96, puzzle: Same State NG 2) | 22.1 | 25.2 | 37.2 | – | – | –
24 | UGGCUCAGACGAGGAUAUGAUCAUGGCGCUUCGGCGCAUACAUGAGGAUCACCCAUGUAAAGUGAUCAGAAGGCGUCUGAGCCA [SSNG2/7-A2] (Eterna round: R96, puzzle: Same State NG 2) | 13.2 | 11.6 | 17.7 | – | – | –
25 | UGGCUCAGACUAGGAUAUAUGCGAUCACAUGAGGAUCACCCAUGUCUCGAGCUUCGGCUCGAGGCAUAGAAGGAGUCUGAGCCA [SSNG2/4-D2] (Eterna round: R96, puzzle: Same State NG 2) | 14.4 | 34.6 | 56.5 | – | – | –
26 | UGGCUCAGAGCAGGAUAUACGUGGUCACAUGAGGAUCACCCAUGUCUCGAGCUUCGGCUCGAGGCGUAGAAGGGCUCUGAGCCA [SSNG2/6-B2] (Eterna round: R96, puzzle: Same State NG 2) | 110 | 187 | 305 | – | – | –
27 | UGGCUGGUGCUAGGAUAUGCAUGAGGAAUCCUCGUAGAAGGAGCACGACAUGAGGAUCACCCAUGUAGCCGUCCGUAGACGGCU [salish99_SSNG1_r04_009] (Eterna round: R96, puzzle: Same State NG 1) | 98.7 | 26.3 | 91.8 | – | – | –
28 | UGGUACAUGGGAGGAUAUCUCAUGGUGACAUGAGGAUCACCCAUGUAGUUGGACCGGAAACGGUGAGAGAAGGCCCAUGUACCU [JL SSNG1 3.74] (Eterna round: R96, puzzle: Same State NG 2) | 72.1 | 68.3 | 95.9 | – | – | –
29 | UGGUACAUGGGAGGAUAUCUCGUAGAGACAUGAGGAUCACCCAUGUAGAUGGCCGGUAACCGGGAAGAGAAGGCCCAUGUACCU [JL SSNG1 3.66] (Eterna round: R96, puzzle: Same State NG 2) | 203 | 56.1 | 82.6 | – | – | –
30 | UGGUACAUGGGAGGAUAUGGAGUUGAGACAUGAGGAUCACCCAUGUUAUAAAAGCCGAGAGGCAACUAGAAGGCCCAUGUACCU [JL SSNG1 3.92] (Eterna round: R96, puzzle: Same State NG 2) | 10.2 | 49.9 | 62.9 | – | – | –
